From patent US20250312499A1, “KISSPEPTIN RECEPTOR (KISS1R) TARGETED THERAPEUTICS AND USES THEREOF” (priority 2024, published 2025)
Numbered stars: 1 amine (or outer) side, 2 acyl side, 3 side chain; on linkers, the order of the positions; unused ones are H or OH. Square brackets hold non-standard residues; d marks the D form. * marks the point of attachment. X2 = 4‑amino‑1‑((3-fluoro-4-methylbenzyl)glycyl)piperidine‑4‑carboxylic acid, Cc1ccc(CN(CC(=O)N2CCC(N[*:1])(C(=O)[*:2])CC2)[*:3])cc1F; DOTA = O=C(O)CN1CCN(CC(=O)O)CCN(CC(=O)*)CCN(CC(=O)O)CC1; Butanoyl(4-(4-I-phenyl)) = O=C(CCCc1ccc(I)cc1)*; Api(1-amidino) = N=C(N)N1CCC(N)(C(=O)O)CC1; Phe(3-F) = N[C@@H](Cc1cccc(F)c1)C(=O)O; d2Nal = N[C@H](Cc1ccc2ccccc2c1)C(=O)O; Hyp = O=C(O)[C@@H]1C[C@@H](O)CN1; 4Pal = N[C@@H](Cc1ccncc1)C(=O)O; d4Pal = N[C@H](Cc1ccncc1)C(=O)O; Cha = N[C@@H](CC1CCCCC1)C(=O)O; d(β3hD) = NC(CC(=O)O)CC(=O)O; 4Amb = NCc1ccc(C(=O)O)cc1; Pip = O=C(O)[C@@H]1CCCCN1; Octanoyl = CCCCCCCC(=O)*; Ahx = NCCCCCC(=O)O; azaGly = NNC(=O)O; βAla = NCCC(=O)O; Sar = CNCC(=O)O

Assays:
[1] = target: human kisspeptin receptor (KISS1R) (human) (UniProt Q969F8); test: radioligand competition, hKISS1R membranes; legend: A is <10 nM
Sequence of human kisspeptin receptor (KISS1R) (human) (Q969F8 whole entry): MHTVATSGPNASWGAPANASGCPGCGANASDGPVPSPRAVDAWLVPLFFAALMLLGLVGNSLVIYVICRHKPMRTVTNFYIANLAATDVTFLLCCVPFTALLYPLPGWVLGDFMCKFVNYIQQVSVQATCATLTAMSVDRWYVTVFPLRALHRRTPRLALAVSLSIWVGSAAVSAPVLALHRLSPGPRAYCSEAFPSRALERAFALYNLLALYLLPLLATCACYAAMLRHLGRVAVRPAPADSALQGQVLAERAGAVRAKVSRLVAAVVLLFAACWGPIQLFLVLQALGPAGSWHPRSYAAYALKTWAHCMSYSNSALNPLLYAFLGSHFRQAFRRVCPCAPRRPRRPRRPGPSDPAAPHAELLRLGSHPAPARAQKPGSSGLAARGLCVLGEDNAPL

[2] = target: human kisspeptin receptor (KISS1R) (human), Q969F8; test: radioligand competition, hKISS1R membranes; legend: B is 10-100 nM
Sequence of human kisspeptin receptor (KISS1R) (human), Q969F8 (Q969F8 whole entry): as above

Binder	Ki [1] [nM]	Ki [2] [nM]
{DOTA}-[βAla][dN][dN][dN][dN][dN]F[azaGly]L[X2]W-NH2 (SMILES Cc1ccc(CNCC(=O)N2CCC(NC(=O)[C@H](CC(C)C)NC(=O)NNC(=O)[C@H](Cc3ccccc3)NC(=O)[C@@H](CC(N)=O)NC(=O)[C@@H](CC(N)=O)NC(=O)[C@@H](CC(N)=O)NC(=O)[C@@H](CC(N)=O)NC(=O)[C@@H](CC(N)=O)NC(=O)CCNC(=O)CN3CCN(CC(=O)O)CCN(CC(=O)O)CCN(CC(=O)O)CC3)(C(=O)N[C@@H](Cc3c[nH]c4ccccc34)C(N)=O)CC2)cc1F) [Compound 14]		10 to 100
{DOTA}-ENT[Phe(3-F)][azaGly]L[X2][4Pal]-NH2 (SMILES Cc1ccc(CNCC(=O)N2CCC(NC(=O)[C@H](CC(C)C)NC(=O)NNC(=O)[C@H](Cc3cccc(F)c3)NC(=O)[C@@H](NC(=O)[C@H](CC(N)=O)NC(=O)[C@H](CCC(=O)O)NC(=O)CN3CCN(CC(=O)O)CCN(CC(=O)O)CCN(CC(=O)O)CC3)[C@@H](C)O)(C(=O)N[C@@H](Cc3ccncc3)C(N)=O)CC2)cc1F) [Compound 171]		10 to 100
{DOTA}-[dN][dN]F[azaGly]L[X2]W-NH2 (SMILES Cc1ccc(CNCC(=O)N2CCC(NC(=O)[C@H](CC(C)C)NC(=O)NNC(=O)[C@H](Cc3ccccc3)NC(=O)[C@@H](CC(N)=O)NC(=O)[C@@H](CC(N)=O)NC(=O)CN3CCN(CC(=O)O)CCN(CC(=O)O)CCN(CC(=O)O)CC3)(C(=O)N[C@@H](Cc3c[nH]c4ccccc34)C(N)=O)CC2)cc1F) [Compound 18]		10 to 100
{DOTA-Ahx}-[dA][dA][dA][dA][dA]F[azaGly]L[X2]W-NH2 (SMILES Cc1ccc(CNCC(=O)N2CCC(NC(=O)[C@H](CC(C)C)NC(=O)NNC(=O)[C@H](Cc3ccccc3)NC(=O)[C@@H](C)NC(=O)[C@@H](C)NC(=O)[C@@H](C)NC(=O)[C@@H](C)NC(=O)[C@@H](C)NC(=O)CCCCCNC(=O)CN3CCN(CC(=O)O)CCN(CC(=O)O)CCN(CC(=O)O)CC3)(C(=O)N[C@@H](Cc3c[nH]c4ccccc34)C(N)=O)CC2)cc1F) [Compound 13]		10 to 100
Octanoyl-K(DOTA)NTF[azaGly]L[Api(1-amidino)][4Pal]-NH2 (SMILES CCCCCCCC(=O)N[C@@H](CCCCNC(=O)CN1CCN(CC(=O)O)CCN(CC(=O)O)CCN(CC(=O)O)CC1)C(=O)N[C@@H](CC(N)=O)C(=O)N[C@H](C(=O)N[C@@H](Cc1ccccc1)C(=O)NNC(=O)N[C@@H](CC(C)C)C(=O)NC1(C(=O)N[C@@H](Cc2ccncc2)C(N)=O)CCN(C(=N)N)CC1)[C@@H](C)O) [Compound 226]		10 to 100
{DOTA-trans‑4‑(aminomethyl)cyclohexane‑1‑carboxylic acid}-[D‑3‑aminopentanedioic acid]NT[Phe(3-F)][azaGly]L[X2][4Pal]-NH2 [Compound 231]		10 to 100
{DOTA}-[d(β3hD)]NT[Phe(3-F)][azaGly]L[X2][4Pal]-NH2 [Compound 230]		10 to 100
{DOTA-Ahx}-F[azaGly]L[4‑amino‑1‑(4-(p-tolyl)butanoyl)piperidine‑4‑carboxylic acid]W-NH2 [Compound 7]		10 to 100
{DOTA-Ahx}-[dY][3‑(9-anthryl)alanine]NTF[azaGly]L[Api(1-amidino)][4Pal]-NH2 [Compound 222]	< 10	
{DOTA-Ahx}-F[Sar]L[X2]W-NH2 (SMILES Cc1ccc(CNCC(=O)N2CCC(NC(=O)[C@H](CC(C)C)NC(=O)CN(C)C(=O)[C@H](Cc3ccccc3)NC(=O)CCCCCNC(=O)CN3CCN(CC(=O)O)CCN(CC(=O)O)CCN(CC(=O)O)CC3)(C(=O)N[C@@H](Cc3c[nH]c4ccccc34)C(N)=O)CC2)cc1F) [Compound 12]		10 to 100
{DOTA}-[dK][dN]F[azaGly]L[X2]W-NH2 (SMILES Cc1ccc(CNCC(=O)N2CCC(NC(=O)[C@H](CC(C)C)NC(=O)NNC(=O)[C@H](Cc3ccccc3)NC(=O)[C@@H](CC(N)=O)NC(=O)[C@@H](CCCCN)NC(=O)CN3CCN(CC(=O)O)CCN(CC(=O)O)CCN(CC(=O)O)CC3)(C(=O)N[C@@H](Cc3c[nH]c4ccccc34)C(N)=O)CC2)cc1F) [Compound 19]		10 to 100

Now from value to binder:

Ki [1] [nM]	Ki [2] [nM]	Binder
< 10		{DOTA-Ahx}-[dY][d4Pal]NTF[azaGly]L[Apc(OMe)][4Pal]-NH2 [Compound 299]
< 10		{DOTA-Ahx}-[dK](4‑(p-tolyl)butanoyl)[dY][d2Nal]NTF[azaGly]L[Api(1-amidino)]F-NH2 [Compound 309]
< 10		{DOTA-Ahx}-[dY][d2Nal]NTF[azaGly]L[Api(1-amidino)]F-NH2 (SMILES CC(C)C[C@H](NC(=O)NNC(=O)[C@H](Cc1ccccc1)NC(=O)[C@@H](NC(=O)[C@H](CC(N)=O)NC(=O)[C@@H](Cc1ccc2ccccc2c1)NC(=O)[C@@H](Cc1ccc(O)cc1)NC(=O)CCCCCNC(=O)CN1CCN(CC(=O)O)CCN(CC(=O)O)CCN(CC(=O)O)CC1)[C@@H](C)O)C(=O)NC1(C(=O)N[C@@H](Cc2ccccc2)C(N)=O)CCN(C(=N)N)CC1) [Compound 300]
< 10		{DOTA-Ahx}-[dY][d2Nal]NTF[azaGly]L[Api(1-amidino)]W-NH2 [Compound 269]
< 10		{DOTA-Ahx}-[dY][d2Nal]NTF[azaGly]L[4‑amino‑1‑((4-iodobenzyl)glycyl)piperidine‑4‑carboxylic acid][dW]-NH2 [Compound 371]
< 10		{DOTA-Ahx}-[dK](Butanoyl(4-(4-I-phenyl)))[Ahx][dY][d2Nal]NTF[azaGly]L[Api(1-amidino)]W-NH2 (SMILES CC(C)C[C@H](NC(=O)NNC(=O)[C@H](Cc1ccccc1)NC(=O)[C@@H](NC(=O)[C@H](CC(N)=O)NC(=O)[C@@H](Cc1ccc2ccccc2c1)NC(=O)[C@@H](Cc1ccc(O)cc1)NC(=O)CCCCCNC(=O)[C@@H](CCCCNC(=O)CCCc1ccc(I)cc1)NC(=O)CCCCCNC(=O)CN1CCN(CC(=O)O)CCN(CC(=O)O)CCN(CC(=O)O)CC1)[C@@H](C)O)C(=O)NC1(C(=O)N[C@@H](Cc2c[nH]c3ccccc23)C(N)=O)CCN(C(=N)N)CC1) [Compound 337]
< 10		{DOTA-Ahx}-[dK](Butanoyl(4-(4-I-phenyl)))[dY][d2Nal]NTF[azaGly]L[Api(1-amidino)]F-NH2 (SMILES CC(C)C[C@H](NC(=O)NNC(=O)[C@H](Cc1ccccc1)NC(=O)[C@@H](NC(=O)[C@H](CC(N)=O)NC(=O)[C@@H](Cc1ccc2ccccc2c1)NC(=O)[C@@H](Cc1ccc(O)cc1)NC(=O)[C@@H](CCCCNC(=O)CCCc1ccc(I)cc1)NC(=O)CCCCCNC(=O)CN1CCN(CC(=O)O)CCN(CC(=O)O)CCN(CC(=O)O)CC1)[C@@H](C)O)C(=O)NC1(C(=O)N[C@@H](Cc2ccccc2)C(N)=O)CCN(C(=N)N)CC1) [Compound 310]
< 10		{DOTA-Ahx}-[d2Nal]NTF[azaGly]L[Api(1-amidino)]F-NH2 (SMILES CC(C)C[C@H](NC(=O)NNC(=O)[C@H](Cc1ccccc1)NC(=O)[C@@H](NC(=O)[C@H](CC(N)=O)NC(=O)[C@@H](Cc1ccc2ccccc2c1)NC(=O)CCCCCNC(=O)CN1CCN(CC(=O)O)CCN(CC(=O)O)CCN(CC(=O)O)CC1)[C@@H](C)O)C(=O)NC1(C(=O)N[C@@H](Cc2ccccc2)C(N)=O)CCN(C(=N)N)CC1) [Compound 301]
	10 to 100	{DOTA-4Amb}-F[azaGly][dL][X2]W-NH2 (SMILES Cc1ccc(CNCC(=O)N2CCC(NC(=O)[C@@H](CC(C)C)NC(=O)NNC(=O)[C@H](Cc3ccccc3)NC(=O)c3ccc(CNC(=O)CN4CCN(CC(=O)O)CCN(CC(=O)O)CCN(CC(=O)O)CC4)cc3)(C(=O)N[C@@H](Cc3c[nH]c4ccccc34)C(N)=O)CC2)cc1F) [Compound 260]
< 10		{DOTA-Ahx}-[dY][d2Nal]NT[Cha][azaGly]L[Api(1-amidino)]W-NH2 (SMILES CC(C)C[C@H](NC(=O)NNC(=O)[C@H](CC1CCCCC1)NC(=O)[C@@H](NC(=O)[C@H](CC(N)=O)NC(=O)[C@@H](Cc1ccc2ccccc2c1)NC(=O)[C@@H](Cc1ccc(O)cc1)NC(=O)CCCCCNC(=O)CN1CCN(CC(=O)O)CCN(CC(=O)O)CCN(CC(=O)O)CC1)[C@@H](C)O)C(=O)NC1(C(=O)N[C@@H](Cc2c[nH]c3ccccc23)C(N)=O)CCN(C(=N)N)CC1) [Compound 317]
< 10		{DOTA-Ahx}-[dY][d2Nal]NTF[azaGly]L[4‑amino‑1‑(octylglycyl)piperidine‑4‑carboxylic acid][dW]-NH2 [Compound 374]
< 10		{DOTA-Ahx}-[dY][d2Nal]NTF[azaGly]L[Pip][dW]-NH2 [Compound 339]
< 10		{DOTA-Ahx}-[dY][Hyp]NTF[azaGly]L[Api(1-amidino)]W-NH2 (SMILES CC(C)C[C@H](NC(=O)NNC(=O)[C@H](Cc1ccccc1)NC(=O)[C@@H](NC(=O)[C@H](CC(N)=O)NC(=O)[C@@H]1C[C@@H](O)CN1C(=O)[C@@H](Cc1ccc(O)cc1)NC(=O)CCCCCNC(=O)CN1CCN(CC(=O)O)CCN(CC(=O)O)CCN(CC(=O)O)CC1)[C@@H](C)O)C(=O)NC1(C(=O)N[C@@H](Cc2c[nH]c3ccccc23)C(N)=O)CCN(C(=N)N)CC1) [Compound 311]
